Substitutions are numbered along the chain they refer to. Names and notes keep the numbering of the source. One block for each binder: values may come before it.
Key:
[1] = molecular target: T1, Human VSIG4-L-His (human, UniProt Q9Y279 20-283); test: BLI (Octet), mouse IgG on AMC sensor, antigen 100 nM;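 note: octet Red384 biolayer interferometry with immobilized mouse hybridoma antibodies, 300 s association then 300 s dissociation at 30 °C, isotype-control reference subtraction, 1:1 global fit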
T1 construct: long isoform ECD with His tag; also called hVSIG4-L
T1 sequence: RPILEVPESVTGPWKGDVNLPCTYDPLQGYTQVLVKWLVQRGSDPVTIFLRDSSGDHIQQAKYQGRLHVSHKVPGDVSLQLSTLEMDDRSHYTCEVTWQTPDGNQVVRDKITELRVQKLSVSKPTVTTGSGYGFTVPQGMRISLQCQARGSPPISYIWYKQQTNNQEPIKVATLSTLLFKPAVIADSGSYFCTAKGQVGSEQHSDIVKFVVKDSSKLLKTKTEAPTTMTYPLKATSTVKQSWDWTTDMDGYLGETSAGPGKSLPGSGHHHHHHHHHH
Protocol: (§1) The binding affinity of murine hybridoma antibodies was determined by biolayer interferometry (BLI), using a ForteBio Octet® Red384 system. […] Biosensors were rehydrated prior to the assay in kinetics buffer for 10 minutes and then equilibrated in kinetics buffer for 60 seconds. Antibody was then immobilized for 300 seconds followed by a 120 second baseline wash in fresh kinetics buffer, 300 second analyte association, and 300 second dissociation in the same buffer wells as the baseline wash step. All assay steps occurred at 30° C. with an acquisition rate of 5.0 Hz. Processing parameters included reference subtraction, with mouse IgG1 or mouse IgG2a used as an isotype control for reference sensor subtraction. Y-axis data was aligned to the average baseline step for the last 5 seconds and all steps were inter-step corrected to the start of the dissociation step. High frequency noise was removed using Savitzky-Golay filtering and final fitting was a 1:1 global binding model to both association and dissociation.

[2] = molecular target: T2, Human VSIG4-S-His (human, UniProt Q9Y279 20-283); test: as above
T2 construct: short isoform ECD with His tag; also called hVSIG4-S; VISG4-S-His
T2 sequence: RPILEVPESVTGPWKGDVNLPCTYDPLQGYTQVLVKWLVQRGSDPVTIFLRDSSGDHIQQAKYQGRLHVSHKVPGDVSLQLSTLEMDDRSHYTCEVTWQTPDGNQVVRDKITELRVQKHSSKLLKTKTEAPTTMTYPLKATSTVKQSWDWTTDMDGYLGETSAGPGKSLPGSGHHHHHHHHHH
Protocol: as §1

[3] = molecular target: T3, Cynomolgus Monkey VSIG4-L-His (cynomolgus monkey); test: as above
T3 construct: ECD with His tag; also called cyVSIG4-L; cyno VSIG4-L-His
T3 chain: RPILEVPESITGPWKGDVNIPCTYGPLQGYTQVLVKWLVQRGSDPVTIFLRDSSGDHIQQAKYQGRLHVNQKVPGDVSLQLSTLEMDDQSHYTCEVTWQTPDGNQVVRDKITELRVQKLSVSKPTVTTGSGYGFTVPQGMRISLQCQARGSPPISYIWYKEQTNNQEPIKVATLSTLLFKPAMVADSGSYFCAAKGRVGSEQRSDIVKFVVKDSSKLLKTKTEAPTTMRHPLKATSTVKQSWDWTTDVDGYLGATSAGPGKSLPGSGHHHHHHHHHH
Protocol: as §1

[4] = molecular target: T4, Human VSIG4-L-Fc (human); test: BLI cross-blocking on hVSIG4-L-Fc, competitor 12A12 first
T4 construct: also called hVSIG4-L-Fc; hVSIG4-L
T4 sequence (chain, as listed by the source limits assumed): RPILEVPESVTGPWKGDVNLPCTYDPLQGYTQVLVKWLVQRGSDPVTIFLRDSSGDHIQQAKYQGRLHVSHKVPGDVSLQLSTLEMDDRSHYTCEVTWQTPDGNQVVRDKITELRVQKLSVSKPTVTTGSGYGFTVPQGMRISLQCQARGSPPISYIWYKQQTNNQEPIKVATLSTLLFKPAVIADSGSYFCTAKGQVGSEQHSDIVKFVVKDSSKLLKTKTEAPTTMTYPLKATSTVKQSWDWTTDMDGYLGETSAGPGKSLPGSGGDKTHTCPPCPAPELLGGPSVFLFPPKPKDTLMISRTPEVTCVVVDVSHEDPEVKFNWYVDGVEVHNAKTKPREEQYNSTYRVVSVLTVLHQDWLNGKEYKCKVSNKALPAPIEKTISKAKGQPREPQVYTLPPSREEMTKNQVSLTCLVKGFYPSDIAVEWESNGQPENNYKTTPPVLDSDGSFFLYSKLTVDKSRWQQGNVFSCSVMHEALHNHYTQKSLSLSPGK
Protocol: (§2) All assay steps occurred at 30° C. with an acquisition rate of 5.0 Hz.

[5] = molecular target: T4, Human VSIG4-L-Fc; test: BLI cross-blocking on hVSIG4-L-Fc, competitor 14C05 first
Protocol: as §2

[6] = molecular target: T4, Human VSIG4-L-Fc; test: ELISA, Fab P.E. 1:5 on coated antigen;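 note: mouse Fab P.E. samples in 1% skimmed milk PBS, bound to antigen-coated wells for 1 h at room temperature, read as absorbance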
Protocol: (§3) Coated microplates were blocked with dried skimmed milk at 4% in PBS. P.E. samples of the mouse unique Fab sequences were diluted 1:5 in assay buffer (1% dried skimmed milk in PBS), and 100 μl of diluted sample was added onto the coated wells and incubated for one hour at room temperature. […] Optical density (OD) at 450 nm was determined using a standard absorbance microplate reader.

[7] = molecular target: T5, Human VSIG4-S-Fc (human); test: ELISA, Fab P.E. 1:5 on coated antigen;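 note: mouse Fab P.E. samples in 1% skimmed milk PBS, bound to antigen-coated wells for 1 h at room temperature, read as absorbance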
T5 construct: short isoform ECD fused to human Fc1; also called hVSIG4-S
T5 sequence (chain, as listed by the source limits assumed): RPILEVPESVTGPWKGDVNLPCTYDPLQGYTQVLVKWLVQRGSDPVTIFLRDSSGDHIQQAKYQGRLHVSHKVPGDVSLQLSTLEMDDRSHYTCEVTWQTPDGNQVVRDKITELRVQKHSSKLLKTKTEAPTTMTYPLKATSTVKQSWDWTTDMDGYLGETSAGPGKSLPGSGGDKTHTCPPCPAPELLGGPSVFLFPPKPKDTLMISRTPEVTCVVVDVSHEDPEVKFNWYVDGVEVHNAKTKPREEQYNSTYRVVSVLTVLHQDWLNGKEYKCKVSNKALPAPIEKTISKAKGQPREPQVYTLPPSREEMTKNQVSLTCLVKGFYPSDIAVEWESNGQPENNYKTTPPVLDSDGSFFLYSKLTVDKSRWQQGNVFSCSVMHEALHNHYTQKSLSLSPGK
Protocol: as §3

[8] = molecular target: T3, Cynomolgus Monkey VSIG4-L-His; test: ELISA, Fab P.E. 1:5 on coated antigen;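 note: mouse Fab P.E. samples in 1% skimmed milk PBS, bound to antigen-coated wells for 1 h at room temperature, read as absorbance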
Protocol: as §3

[9] = molecular target: T1, Human VSIG4-L-His; test: SPR (Biacore T200), Fab P.E. 1:5 over immobilised antigen
Protocol: Off-rate values of the mouse unique Fab clones were determined using surface plasmon resonance (SPR) in Biacore™ T200 equipment (GE Healthcare, Chicago, IL). […] The immobilization was performed in accordance with a method provided by Biacore and by using the NHS/EDC kit (GE Healthcare, Chicago, IL). […] Sixty μl of Fab P.E. samples, diluted 1:5 in HBS-EP+ assay buffer (0.1 M HEPES, 1.5 M NaCl, 0.03 M EDTA and 0.5% v/v Surfactant P20), were injected and passed through the flow cells at a flow rate of 30 μl/min. After binding of the samples to VSIG4 protein, the off-rate was monitored for a period of five minutes. The flow cell surface was regenerated by a double injection of 10 μl of 1 mM glycine at pH 1.5 in 1 M sodium chloride at 30 μl/min. Off-rate analysis was done using the BIAevaluation software (GE Healthcare, Chicago, IL) and using a 1:1 dissociation kinetic fit curve.

B1: 1H7.C7 murine hybridoma antibody (antibody, V domains shown)
VH: EVQLVESGGGLVMPGGSRRLSCAASGFTFSDSGMYWVRQAPEKGLEWIAYISSGSDTLYYAATVKGRFTISRDNAKNTLFLQMTSLRSEDTAIYYCAKRNFYGYDVMDYWGQGTSVTVSS
VL: DIVMTQSHKFMSTSVGDRVSITCKASQDVSNVVAWYQQKPGQSPKLLIYSASYRYTGVPDRFAGSGSGTDFTFTISSVQAEDLAVYYCQQHYSTPWTFGGGTKLEIK
notes: murine IgG purified from hybridoma supernatant
Kd [1]: 6.83 nM
Kd [2]: 21.5 nM
Kd [3]: 6.45 nM

B6: A2 anti-VSIG4 antibody, human IgG4 (S228P) kappa (antibody, V domains shown)
VH: QVTLKESGPTLVKPTQTLTLTCTFSGISLTTSGMGVGWIRQPPGKALEWLADIFWDDNKYYNPSLKSRLTITKDTSKNQVVLTMTNMDPVDTATYYCVRVYYKNDGYFDVWGKGTTVTVSS
VL: DIVLTQSPLSLPVTLGQPASISCRASKSVTTSGYSFMHWYQQRPGQSPRLLIYLASNLEPGVPDRFSGSGSGTDFTLKIFRVEAEDVGVYYCQQSGELPYTFGQGTKLEIKR
notes: variable regions from U.S. Pat. Publ
binding signal (nm shift) [4]: 0.6 nm
binding signal (nm shift) [5]: 0.57 nm

B7: 16E03 mouse Fab (periplasmic extract) (Fab, V domains shown)
VH: QVQLQQSGAELARPGASVKMSCKASGYTFTSYTMHWIKQRPGQGLEWIGYINPSSGHTYYNQKFKDKATLTPDKSSSTAYMQLTSLTSEDSAVYYCARRIPTAYAMDYWGQGTSVTVSS
VL: EIQMTQSHKFMSTSVGDRVSITCKASQDVGTAVAWYQQKPGQSPKLLIYWASTRHTGVPDRFTGSGSGTDFTLTISNVQSEDLADYFCQQYSSYPLTFGAGTKLELK
notes: mouse Fab with C-terminal His6-c-myc tag
ELISA OD450 [6]: 4.43 OD450
ELISA OD450 [7]: 4.3 OD450
ELISA OD450 [8]: 0.21 OD450
koff [9]: 0.013 s⁻¹

B10: 15C04 mouse Fab (periplasmic extract) (Fab, V domains shown)
VH: QIQLQESGPSLVRPSQTLSLTCSVTGDSITSGYWNWIRKFPGDKLEYLGYISYSGFTYYNPSLKSRISITRDTSKNQYYLQLNSVTTEDTATYYCASSYYGSSLGFPYWGQGTLVTVSA
VL: DVVMTQTPLSLPVSLGDQASISCRSSQSLVHSNGNTYLHWYLQKPGQSPKLLIYKVSNRFSGVPDRFSGSGSGTDFTLKISRVEAEDLGVYFCSQSTHVPWTFGGGTKLEIK
notes: as for B7
ELISA OD450 [6]: 4.21 OD450
ELISA OD450 [7]: 0.06 OD450
ELISA OD450 [8]: 0.05 OD450
koff [9]: 0.0019 s⁻¹

B11: 10E8.B6 murine hybridoma antibody (antibody, V domains shown)
VH: EVQLQQSGPELMKPGDSVKMSCKASGYTFTDYYMDWVKQSHGKSLEWIGYIYPNIDFTTYNQKFKGKATLTVDKSSNTAYMELHSLTSEDSAVYYCTRRDLPLHGSAYYFDYWGQGTTLTVSS
VL: DIVMSQSPSSLAVSAGEKVTMSCKSSQSLLNSRTRKNYLAWYQQKPGQSPKLLIYWASTRESGVPDRFTGSGSGTDFTLTISSVQAEDLAVYYCKQSYDLFTFGSGTKLEIK
notes: as for B1
Kd [1]: 2.13 nM
Kd [2]: 6.95 nM
Kd [3]: 1.56 nM

Results, then the binder that gave them:

Kd [1]: 0.965 nM
Kd [2]: 5.16 nM
Kd [3]: 1.23 nM
B2: 9A10.C4 murine hybridoma antibody (antibody, V domains shown)
VH: EVQLVESGGALVQPGGSLKLSCVASGFSFSNCVMSWVRQSPEKRLEWVATIGSDGSYSYYQDNVKGRFTVSRDNAKNTLYLQMSSLGSEDTALYYCGRHIYGYDVVDYWGQGTSLTVSS
VL: B1 VL with S20T, Y36F, Y55F, T56G, A63T, S93D, W96L, G100T, K103T, I106L
notes: as for B1

Kd [1]: 1.76 nM
Kd [2]: 4.99 nM
Kd [3]: 1.4 nM
B3: 13E11.A4 murine hybridoma antibody (antibody, V domains shown)
VH: EVQLVESGGALVKPGGSLKLSCVASRFNLNNCVMSWIRQTPEKRLEWVATIDSGSIYTYYPDSVKGRFTISRDNAKNTLYLQMSSLRSEDTAVYYCVRHIYGYDVVDNWGQGTTLTVAS
VL: DIVMTQSHKFMSTSVGDNVSITCKASQYVSNTVAWYQQKPGQSPKLLIYSASYRNTGVPDRFTGSGSGTNFTFTISNMQAEDLAFYYCQQHYTSPLTFGAGTKLELK
notes: as for B1

Kd [1]: 1.03 nM
Kd [2]: 3.29 nM
Kd [3]: 1.13 nM
B4: 1C6.D6 murine hybridoma antibody (antibody, V domains shown)
VH: QVQLQQPGAEMVRPGTSVKLSCKASGYTFTSYWMHWVKQRPGQGLEWIGKIDPSHNKTHYIQKFEDKATLTVDKSSSTAYMHLNSLTSEDSAVYYCVTWDGDFLYWGQGTLVTVSA
VL: NIVLTQSPASLTVSLGQRATISCRASESVDSYGNSFMHWYQQKPGQPPKLLIYITSNLQSGVPARFSGGGSRTDFTLTIDPVEADDAATYYCQQNNEDPWTFGGGTKLEIK
notes: murine IgG purified from hybridoma supernatant; also called 1C6.D6b

Kd [1]: 0.472 nM
Kd [2]: 2.87 nM
Kd [3]: 0.802 nM
B5: 16F6.E1 murine hybridoma antibody (antibody, V domains shown)
VH: QVQLQQPGAEMVRPGASLKLSCKASGYTFTSYWMHWVKQRPGQGLEWIGKIDPSKNTTHYNQNFRDKATLTVDRSSSTAYMQLNSLTSEDSAVYFCVTWDGDFTYWGQGTLVTISA
VL: B4 VL with A9P, T12A, I54L, T55A, Q59E, G69S, Y91F, Q93H
notes: murine IgG purified from hybridoma supernatant; also called 16F6.H6

Kd [1]: 1.72 nM
Kd [2]: 5.86 nM
Kd [3]: 2.02 nM
B8: 14F8.H6 murine hybridoma antibody (antibody, V domains shown)
VH: EVHLVESGGALVKPGGSLKLSCTASGFTFSNSVMSWIRQTPEKRLEWVATIGSGGTYIYYPDSVKGRFTISRDNSKNTLFLQMTSLRSEDTALYYCARHIYGYDVVDYWGQGTTLTVST
VL: DIVMTQSHRFMSTSVGDRVSITCKASHDVSNVVAWYQQKPGQSPELLIYSASYRYTGVPARFTGSGSGTDFTFTISSVQAEDLAVYFCQQHFTTPLTFGAGTSLEVR
notes: as for B1

Kd [1]: 0.475 nM
Kd [2]: 0.505 nM
Kd [3]: 0.435 nM
B9: 5D2.C8 murine hybridoma antibody (antibody, V domains shown)
VH: EVKLVESGGGLVKPGGSLKLSCAVSGFTFSNSAMSWVRQTPAKRLEWVAYISISGDNTYYPDSVKGRFTISRDNAKNTLYLQMSSLRSEDTAMYYCARRGYDYDGFTHWGQGTLVTVSA
VL: DILLTQSPAILSVSPGERVSFSCRASQNIGTSIHWYQQRTNGSPRLLIKYASQSISGIPSRFSGSGSGTDFTLSINSVESEDIADYYCQQSYSWPLTFGTGTQLELK
notes: as for B1

Reference: US20230348603A1 (VERSEAU THERAPEUTICS, published 2023)
